Measurements reported in patent US20240101716A1.

Molecular target: PD-L1 (blocking assay of Example 11) (UniProt Q9NZQ7)
Sequence (Q9NZQ7 19-239 limits assumed): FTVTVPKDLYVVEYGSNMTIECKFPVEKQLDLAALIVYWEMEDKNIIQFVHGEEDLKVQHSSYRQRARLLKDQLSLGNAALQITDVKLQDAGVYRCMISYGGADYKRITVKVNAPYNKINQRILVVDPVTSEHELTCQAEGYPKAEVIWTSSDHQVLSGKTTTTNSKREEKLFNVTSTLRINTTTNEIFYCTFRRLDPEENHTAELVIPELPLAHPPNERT

| EC50 printed for a flat curve: luminescence stays at the baseline of about 50000 RLU up to Log10 about 2.2 nM (no blockade), PD-1/PD-L1 Blockade Assay [pM] | EC50, luminescence (RLU) in the PD-1/PD-L1 Blockade Assay [nM] | Substance |
| --- | --- | --- |
| 39.5 |  | Human IgG1 (antibody) |
|  | 0.318 | Tecentriq (antibody) |
